In patent CN113388031A (SHANGHAI INSTITUTE FOR ADVANCED STUDY OF ZHEJIANG UNIV, dated 2021):

Target: 新冠病毒RBD蛋白 (SARS-CoV-2 spike receptor binding domain, expressed and purified) (SARS-CoV-2, UniProt P0DTC2 319-541)

B1: 单克隆抗体35B5 (monoclonal antibody 35B5) (antibody, V domains shown, not shown: large carriers)
VH: QVQLLESGGGLVQPGRSLRLSCAASGFTFDDYAMHWVRQAPGKGLEWVSGVSWNSGTIGYADSVKGRFTISRDNAKNSLYLHMRSLRAEDTALYYCAKAVEMVRGLMGLGADPEYGMDVWGQGTTVTVSS
VL: not shown
Kd: 2.19 pM
